Molecular target: Human-Rat chimeric FcεRI α-chain protein (chimeric FcεRI on the cell membrane of HuRa clones) (human (extracellular domain) and rat (transmembrane and intracellular domains); rat) (UniProt P13386)
Assay: cell-based or functional assay

Human-Rat chimeric FcεRI α-chain protein (chimeric FcεRI on the cell membrane of HuRa clones) (human (extracellular domain) and rat (transmembrane and intracellular domains); rat), sequence (chain, as listed by the source mutant, form in doubt, chain 1 of 3): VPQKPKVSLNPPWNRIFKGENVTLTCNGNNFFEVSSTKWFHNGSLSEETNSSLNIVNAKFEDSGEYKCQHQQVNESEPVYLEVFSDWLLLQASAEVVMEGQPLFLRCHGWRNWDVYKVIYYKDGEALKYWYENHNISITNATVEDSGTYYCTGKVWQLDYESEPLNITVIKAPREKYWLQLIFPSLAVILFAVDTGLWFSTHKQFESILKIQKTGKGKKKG
Human-Rat chimeric FcεRI α-chain protein (chimeric FcεRI on the cell membrane of HuRa clones) (human (extracellular domain) and rat (transmembrane and intracellular domains); rat), sequence (P13386 whole entry, stated change not applied, form in doubt, chain 2 of 3, the tested form may be a part): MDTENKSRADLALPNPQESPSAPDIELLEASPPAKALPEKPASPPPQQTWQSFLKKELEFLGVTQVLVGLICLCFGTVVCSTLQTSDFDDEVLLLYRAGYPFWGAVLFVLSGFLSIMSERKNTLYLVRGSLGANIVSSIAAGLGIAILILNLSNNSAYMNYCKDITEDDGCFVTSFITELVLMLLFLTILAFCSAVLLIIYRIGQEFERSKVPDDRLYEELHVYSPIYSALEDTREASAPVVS
Human-Rat chimeric FcεRI α-chain protein (chimeric FcεRI on the cell membrane of HuRa clones) (human (extracellular domain) and rat (transmembrane and intracellular domains); rat), sequence (P20411 19-86, stated change not applied, form in doubt, chain 3 of 3): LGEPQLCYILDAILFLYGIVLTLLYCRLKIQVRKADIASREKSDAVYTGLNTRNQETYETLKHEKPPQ

purified human IgE (ab65866, Abcam) (from UniProt P01854 1-428) (antibody)
luciferase expression level (NF-AT reporter), IgE-sensitized (aIgE) against not sensitized (no IgE) cells, stimulated with anti-human IgE antibody; seven HuRa clones: 100 times
